Test results reported in the supplement of paper PMC10567573.

B1: DYRK1B (parent)
chain: RFQDLVLRMLEYEPAARISPLGAL

Variants of: B1
Assay: protein stability index of a GFP-peptide fusion (GPS, HEK-293T) (PSI 1-6); higher = more stable
Details: c terminus: a fixed tail appended
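Note: lentivirally expressed fusions sorted by FACS into six bins by GFP to DsRed ratio, PSI derived from sequencing read proportions per bin multiplied by bin number.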

Protein stability index: each site, then its substitutions
Q3: V 4.49; D 1.82; N 2.28; P 2.05; S 2.84; E 2.19; K 2.03; I 2.91; R 1.19; H 1.95; T 3.41; Y 3.44
D4: I 1.1; H 2.78; K 2.07; V 3.69; S 2.88; R 2.31; N 1.91
Y12: D 1.99; W 2.82; V 3.06; S 2.61; T 1.04; M 2.22; Q 1.44; P 2; N 1.65; G 1.6; E 1.05
M9: K 1.53; G 1.33; R 1.86; N 2.33; E 1.98; T 1.83; L 2.7; F 2.77; S 1.09; D 3.29; H 2.78
E13: S 2.48; P 3.05; G 1.82; H 1.76; F 2.32; W 3.37; N 2.11; L 2.27; D 3.04; R 1.34; Y 3.29; A 2.87; T 4.09; Q 3.79
R17: T 1; D 1.91; P 2.75; N 1.46; Y 3.04; M 4.29; S 2.69; F 1.77; G 2.29; I 4.01; C 2.25
A15: H 5.14; Y 2.03; R 3.6; K 3.43; Q 2.04; M 2.57; F 1.95; W 5.07; P 2.8
F2: N 2.14; T 2.42; Q 3.35; C 2.36; E 3.27; W 1.39; P 1.76; G 2.18; R 2.38; K 2.15; D 2.38; H 2.53; M 3.25; V 3.5; Y 3.05
E11: P 3.04; T 3.67; A 1.56; M 3.73; N 2.21; Y 3.21; V 3.51; L 2.25; Q 2.81; H 2.96; R 2.66
L5: G 1.4; C 3.97; A 2.01; M 3.17; T 1.49; Y 2.06; Q 1.1; E 1.02; F 2.62; D 2.71; P 2.16; H 1.36; N 2.28; K 1.91; W 2; V 2.42; R 1.2
R1: T 2.57; P 3.11; M 3.36; W 3; Y 2.47; G 1.58; D 1.54; K 2.19; S 4.75; F 3.52; N 2.94; H 2.31
R8: M 3.14; E 2.06; G 1.33; L 1.89; A 4.01; H 1.85; I 2.21; D 1.31; P 2.23; C 2.22
L10: D 1.92; Q 1.6; T 2.19; E 1.27; N 1.64; I 1.96; G 1.66; A 3.32; H 1.17; M 2.05; P 2.37
L7: R 1.58; K 1.51; T 2.3; F 2.9; Y 1.38; H 1.03; N 1.41; M 2.13; G 1.18; Q 1.69; E 1.8; P 2.25; S 2.05
V6: G 1.88; D 2.24; L 1.77
